Reference: patent publication US20050010967A1, “SK3-1B GFP transgenic mouse model for spinocerebellar ataxia and hyperexcitable behavior” (The Regents of the University of California, priority 2003, published 2005)

Experiments:
[1] = molecular target: T1, SK2 channels in Jurkat T lymphocytes (Homo sapiens, UniProt Q9H2S1); assay: Whole cell patch clamp of endogenous SK2 current in Jurkat T lymphocytes; assay type: cell-based
T1 construct: The native SK2 current was suppressed by SK3-1B; endogenous in cells; host or cells: Jurkat T lymphocytes (human)
Source text: (§1) Electrophysiology. PC12 and Jurkat T cells were studied in the whole cell configuration of the patch clamp technique with a holding potential of −80 mV. We determined SK and Kv current amplitude in untransfected cells or in cells transfected with SK3-1B-GFP, SK3-1BIRES-GFP or control constructs (GFP vector alone, GFP-Kv1.7). […] Brightly GFP-positive cells were identified under a fluorescence microscope to allow the analysis of cells expressing high levels of the channel constructs for electrophysiological studies. Control constructs were expressed at equivalently high levels as assessed by the intensity of the GFP signal.
(§2) To activate SK channels, the pipette solution contained (in mM): 145 K^+ aspartate, 2 MgCl2, 10 HEPES, 10 K2EGTA, and 8.5 CaCl2 (1 μM free Ca^2+), pH 7.2, 290-310 mOsm. […] The amplitude of the KV current was measured as the maximum current at 30 mV in 160 Na^+ aspartate. […]
(§3) SK3-1B suppresses other SK channels in a dominant-inhibitory manner. The inventors next determined whether SK3-1B could suppress SK2 channels. […] Using the electrophysiological protocol described above for PC12 cells, SK2 and Kv1.3 currents were measured in Jurkat cells. The inward SK2 current, detected at potentials more negative than −40 mV, was blocked by Lei-Dab (FIG. 5a), a highly specific SK2 peptide inhibitor. […]

[2] = molecular target: T2, Kv1.3 channels in Jurkat T lymphocytes (Homo sapiens, UniProt P22001); assay: Whole cell patch clamp of endogenous Kv1.3 current in Jurkat T lymphocytes; assay type: cell-based
T2 construct: they express SK2 channels and no other SK channels, along with voltage-gated Kv1.3 channels; endogenous in cells; host or cells: Jurkat T lymphocytes (human)
Source text: as §1, §2, §3

[3] = molecular target: T3, endogenous SK3 current in PC12 cells (Rattus norvegicus, UniProt P70605); assay: Whole cell patch clamp of endogenous SK (SK3) current in PC12 cells; assay type: cell-based; details: transfected PC12 cells, 48 h post-transfection; untransfected 6.24±1.57 nS
T3 construct: these cells natively express SK3 currents; endogenous in cells; host or cells: PC12 (rat pheochromocytoma)
Source text: as §1, §2

[4] = system: endogenous Kv current in PC12 cells; assay: Whole cell patch clamp of endogenous Kv current in PC12 cells; assay type: cell-based, rat; details: transfected PC12 cells; 160 mM Na+ aspartate external; untransfected 707.94±147.7 pA
Source text: as §1, §2

native SK3 in PC12 cells = assay: Immunolabeling and confocal microscopy of native SK3 localization in PC12 cells; assay type: cell-based, rat; details: transfected PC12 cells; untransfected 1.72±0.08
Protocol: Immunostaining. Following washing with Dulbecco's phosphate buffered saline (DPBS), cells were fixed with 4% paraformaldehyde for 20 min and washed 2× with DPBS. Permeabilization and blocking was done with 0.2% Triton-X-100 in 10% normal goat serum, followed by a wash with DPBS. Permeabilized cells were incubated with rabbit anti-SK3 antibody (Alomone Labs, Jerusalem, Israel) in a carrier solution containing 1% normal goat serum and 0.2 % sodium azide for 4 h at 4° C. Cells were subsequently washed and incubated with 1 μg/ml Alexa-Fluor 594 (referred to as Alexa-red)-conjugated goat-anti-rabbit-IgG (Molecular Probes) for 1 h at room temperature. […] As an additional test of antibody specificity, the anti-SK3 antibody was shown not to react with SK3-1B protein, an isoform that lacks the SK3 N-terminal epitope detected by the antibody (data not shown). […]
Confocal microscopy. […] The Scion image 4.0.2 program (Scion Corporation, Frederick, Md., USA) was used to determine the pixel intensity of fluorescence that tagged presumptive intracellular and membrane SK3 protein. Three axes were drawn through each stained cell and pixel intensities were measured along each of these axes. […] The average ratio of presumptive membrane to intracellular fluorescence was estimated from these intensity histograms. The expression level of each transfected construct was quantitated as mean pixel intensity. […]

[5] = 100 nM Lei-Dab, untransfected Jurkat T lymphocytes
[6] = transfected Jurkat T lymphocytes, n=4

T3 sequence (P70605 whole entry): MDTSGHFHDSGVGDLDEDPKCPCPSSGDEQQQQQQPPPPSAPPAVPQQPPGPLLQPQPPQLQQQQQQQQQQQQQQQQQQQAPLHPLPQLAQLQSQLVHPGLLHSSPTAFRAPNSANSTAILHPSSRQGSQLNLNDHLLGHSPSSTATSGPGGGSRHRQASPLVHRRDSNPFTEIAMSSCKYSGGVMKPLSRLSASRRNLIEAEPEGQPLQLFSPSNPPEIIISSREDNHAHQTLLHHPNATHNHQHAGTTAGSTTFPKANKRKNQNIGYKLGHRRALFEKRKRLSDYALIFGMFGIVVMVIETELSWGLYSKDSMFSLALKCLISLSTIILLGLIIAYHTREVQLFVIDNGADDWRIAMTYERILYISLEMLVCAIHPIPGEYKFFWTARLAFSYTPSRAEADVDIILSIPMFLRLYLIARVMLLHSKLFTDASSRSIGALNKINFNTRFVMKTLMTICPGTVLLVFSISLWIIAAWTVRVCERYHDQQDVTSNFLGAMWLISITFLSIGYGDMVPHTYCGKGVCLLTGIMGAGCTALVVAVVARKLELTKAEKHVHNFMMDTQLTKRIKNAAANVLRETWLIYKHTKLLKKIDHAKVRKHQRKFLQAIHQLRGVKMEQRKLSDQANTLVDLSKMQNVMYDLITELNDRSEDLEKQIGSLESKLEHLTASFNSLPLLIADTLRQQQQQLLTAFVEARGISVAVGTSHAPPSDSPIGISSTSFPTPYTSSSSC
T2 sequence (P22001 whole entry): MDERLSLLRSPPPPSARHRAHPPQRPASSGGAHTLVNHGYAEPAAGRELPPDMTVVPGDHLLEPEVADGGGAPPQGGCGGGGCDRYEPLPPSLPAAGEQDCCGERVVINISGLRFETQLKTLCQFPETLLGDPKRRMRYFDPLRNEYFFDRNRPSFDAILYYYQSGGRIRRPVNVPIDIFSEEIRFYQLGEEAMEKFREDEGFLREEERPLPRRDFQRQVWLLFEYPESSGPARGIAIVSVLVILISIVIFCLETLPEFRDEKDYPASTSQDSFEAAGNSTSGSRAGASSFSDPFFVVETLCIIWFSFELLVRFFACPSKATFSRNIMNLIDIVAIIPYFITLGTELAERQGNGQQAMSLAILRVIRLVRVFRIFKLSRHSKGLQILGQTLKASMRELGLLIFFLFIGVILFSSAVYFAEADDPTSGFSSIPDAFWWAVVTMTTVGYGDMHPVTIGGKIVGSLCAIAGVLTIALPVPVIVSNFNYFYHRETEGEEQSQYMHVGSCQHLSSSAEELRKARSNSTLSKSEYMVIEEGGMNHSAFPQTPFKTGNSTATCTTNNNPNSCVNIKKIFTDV
T1 sequence (Q9H2S1 whole entry): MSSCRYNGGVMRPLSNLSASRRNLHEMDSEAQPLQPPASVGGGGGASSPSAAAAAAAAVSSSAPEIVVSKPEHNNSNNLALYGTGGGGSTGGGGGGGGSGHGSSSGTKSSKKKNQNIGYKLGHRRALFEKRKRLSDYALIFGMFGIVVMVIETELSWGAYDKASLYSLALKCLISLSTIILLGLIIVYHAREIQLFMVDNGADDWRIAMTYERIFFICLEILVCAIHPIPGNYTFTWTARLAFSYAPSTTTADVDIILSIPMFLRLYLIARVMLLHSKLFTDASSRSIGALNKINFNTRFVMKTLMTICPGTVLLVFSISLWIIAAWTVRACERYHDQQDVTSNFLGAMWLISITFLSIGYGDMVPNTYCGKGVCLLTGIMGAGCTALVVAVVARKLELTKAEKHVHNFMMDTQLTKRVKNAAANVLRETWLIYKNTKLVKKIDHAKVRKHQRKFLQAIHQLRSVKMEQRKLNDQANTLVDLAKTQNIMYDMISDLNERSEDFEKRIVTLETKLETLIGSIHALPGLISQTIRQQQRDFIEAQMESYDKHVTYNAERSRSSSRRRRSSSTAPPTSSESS
Chain of native SK3 in PC12 cells (P70605 whole entry): as the sequence (P70605 whole entry) above

Row | Molecule | Effect on inward SK2 current [1, 5] | Effect on Kv1.3 current [2, 5] | SK currents (mean±SEM), slope conductance at −80 mV [3] | Kv currents (mean±SEM), maximum current at 30 mV [4] | SK2 current in transfected Jurkat T lymphocytes [1, 6] | Kv1.3 current in transfected Jurkat T lymphocytes [2, 6] | Ratio of presumptive membrane to intracellular SK3 fluorescence (mean±SEM) (native SK3 in PC12 cells)
1 | Lei-Dab [reference compound] | blocked | unaffected |  |  |  |  | 
2 | SK3-1B-GFP: SK3-1B coding region inserted in-frame upstream to GFP in pEGFP-N1 expression vector; GFP-tagged truncated SK3 splice variant (protein, left off: large carriers, SK3-1B coding region inserted in-frame upstream to GFP in pEGFP-N1 expression vector; GFP-tagged truncated SK3 splice variant) MFSLALKCLISLSTIILLGLIIAYHTREVQLFVIDNGADDWRIAMTYERILYISLEMLVCAIHPIPGEYKFFWTARLAFSYTPSRAEADVDIILSIPMFLRLYLIARVMLLHSKLFTDASSRSIGALNKINFNTRFVMKTLMTICPGTVLLVFSISLWIIAAWTVRVCERYHDQQDVTSNFLGAMWLISITFLSIGYGDMVPHTYCGKGVCLLTGIMGAGCTALVVAVVARKLELTKAEKHVHNFMMDTQLTKRIKNAAANVLRETWLIYKHTKLLKKIDHAKVRKHQRKFLQAIHQLRSVKMEQRKLSDQANTLVDLSKMQNVMYDLITELNDRSEDLEKQIGSLESKLEHLTASFNSLPLLIADTLRQQQQQLLSAIIEARGVSVAVGTTHTPISDSPIGVSSTSFPTPYTSSSSC |  |  | 0.68±0.08 nS | 475.96±61.78 pA | no SK2 current is observed | resembles that in untransfected cells | 1.1±0.09
3 | SK3-1B-IRES-GFP: Untagged SK3-1B in bicistronic pIRES2-EGFP vector with GFP driven by an internal ribosome entry site (protein) MFSLALKCLISLSTIILLGLIIAYHTREVQLFVIDNGADDWRIAMTYERILYISLEMLVCAIHPIPGEYKFFWTARLAFSYTPSRAEADVDIILSIPMFLRLYLIARVMLLHSKLFTDASSRSIGALNKINFNTRFVMKTLMTICPGTVLLVFSISLWIIAAWTVRVCERYHDQQDVTSNFLGAMWLISITFLSIGYGDMVPHTYCGKGVCLLTGIMGAGCTALVVAVVARKLELTKAEKHVHNFMMDTQLTKRIKNAAANVLRETWLIYKHTKLLKKIDHAKVRKHQRKFLQAIHQLRSVKMEQRKLSDQANTLVDLSKMQNVMYDLITELNDRSEDLEKQIGSLESKLEHLTASFNSLPLLIADTLRQQQQQLLSAIIEARGVSVAVGTTHTPISDSPIGVSSTSFPTPYTSSSSC |  |  | 1.1±0.03 nS | 560.37±75.9 pA |  |  | 
